In PMC6389896 (Communications Biology, 2019):
“And” between values parts separate entries of the source, which are not always exact repeats. Identical values can stand only once.

What was measured:
[1] = Sodium fluorescein leakage into CSF after BCCAO (BBB integrity); type: in vivo, mouse; details: individual animals; for CSF/blood fluorescent: 60 min after injection
Procedure: WT and Ager^−/− male mice (8 to 12-weeks-old and weighing 20–30 g) were used for the experiments. The animals were anaesthetised with 2.0% halothane and maintained with 0.5% halothane through a facemask. Brain ischaemia was induced via bilateral occlusion of the common carotid arteries (BCCAO) for 15 min using microvascular clips as described previously. Laser-Doppler flowmetry was used to measure cerebral cortical microperfusion (3 mm lateral to bregma). […] Rectal temperature was maintained at 36.5–37.5 °C by using a heat lamp and a blanket until the mice were completely alert. The control animals underwent a sham-operation that was identical with the exception of the occlusion. To quantify accumulative BBB leakages, 200 µl of sodium fluorescein (Sigma-Aldrich) at a concentration of 6 mg/ml in PBS was injected via the venous sinus of retro-orbital in the mice. […] Sixty minutes later, the CSF and blood were collected according to the protocol for sampling of CSF and blood from mice[80]. The fluorescence of CSF and serum were measured at 460 nm at an excitation wavelength of 355 nm by using a Fluoroscan Ascent FL luminometer (Labsystems. Wilmington, DE, USA). Results are presented as relative fluorescence units (CSF value/serum value) (%).

[2] = target: human esRAGE (Homo sapiens, UniProt Q15109); test: Plate competition assay of oxytocin-RAGE complex formation by RAGE ligands and RAGE domains; type: binding; details: esRAGE preincubated with ligand, added 30 min to wells with immobilised oxytocin, HRP-anti-RAGE, n = 3
Sequence of human esRAGE (Q15109 23-347 isoform Q15109-3 limits assumed): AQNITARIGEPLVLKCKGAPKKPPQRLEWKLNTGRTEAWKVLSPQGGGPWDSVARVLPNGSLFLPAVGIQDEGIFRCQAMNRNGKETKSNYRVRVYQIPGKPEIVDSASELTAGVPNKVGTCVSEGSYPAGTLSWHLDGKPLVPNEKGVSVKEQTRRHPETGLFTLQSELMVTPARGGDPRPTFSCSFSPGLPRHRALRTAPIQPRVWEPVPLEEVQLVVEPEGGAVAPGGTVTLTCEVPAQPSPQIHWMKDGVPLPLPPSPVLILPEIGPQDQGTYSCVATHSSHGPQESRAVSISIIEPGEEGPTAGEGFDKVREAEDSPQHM
Procedure: RAGE ligands were S100B (Sigma-Aldrich, St. Louis, MO, USA)[30], AGE-BSA (glyceraldehyde-derived AGE-BSA)[27],[32],[41], amyloid β 1-42 (Sigma-Aldrich), and high-mobility group box 1 (HMGB1, Sigma-Aldrich)[42].
Supplementary Figure 3. (a–d) Plate competition assays. Preincubation mixtures of esRAGE (1 mg/ml) with indicated concentrations of S100B (a),AGE-BSA (AGE) (b), amyloid b (c),or high-mobility group box 1 (HMGB1) (d) were added into wells for 30 min on which […]
The formation of oxytocin–RAGE complexes was detected with horseradish peroxidase (HRP)-conjugated anti-RAGE antibody (n = 3). All […]
and C2 domains (30 mg/ml) were used with this system (n = 3). The formation of oxytocin– RAGE complexes was detected with horseradish peroxidase (HRP)-conjugated anti-RAGE antibody (n = 3). *P < 0.05. Allgraphs show mean ± SEM.
(1 picture or pasted object on this page, not shown here)

[3] = target: human endogenous soluble RAGE (esRAGE), recombinant (human); test: SPR; human esRAGE amine-coupled to a CM5 chip (~5000 RU), oxytocin flowed over; BIAcore 2000; 10 mM HEPES pH 7.4, 0.15 M NaCl, 3 mM EDTA, 0.005% surfactant P-20; 25 °C, 20 μl/min; apparent KD
[4] = [13C,15N]oxytocin in CSF after subcutaneous injection, LC-MS/MS; type: in vivo, mouse
Procedure: (§1) High MW proteins in diluted mouse plasma were precipitated with 2% TCA; supernatants obtained after centrifugation were analysed by LC-MS/MS. Mouse CSF samples diluted 1:5 with PBS (25 μl) were analysed directly. […] The eluting 1.0 ml fractions (Fig. 1h) were analysed by LC-MS/MS. The 25 μl samples were separated using a ZORBAX 300SB-C8 column (2.1 × 150 mm, 5 μm; CA, USA) eluted with a linear gradient of 0.1% (v/v) formic acid and acetonitrile (0–30%) at 0.3 ml/min and 50 °C.

[5] = target: T1, soluble RAGE (Homo sapiens, UniProt Q15109); test: Gel permeation, anti-RAGE and esRAGE affinity chromatography of human serum with EIA and LC-MS/MS; type: binding; details: 50 ml human serum
T1 construct: from tissue; host or cells: human serum
T1 sequence (Q15109 23-347 isoform Q15109-3): as the sequence (Q15109 23-347 isoform Q15109-3 limits assumed) above
Procedure: Polypeptides were separated using a Superdex 75 pg HiLoad 26/600 column (GE Healthcare Japan, Tokyo) eluted at 1.0 ml/min with 5 mM ammonium acetate pH 7.8. […] Anti-RAGE monoclonal antibody (1.0 mg) or purified esRAGE (0.5 mg) were coupled to NHS-activated HiTrap (GE Healthcare). Sera samples (50 ml) from healthy consenting adults were applied to the HiTrap-anti-RAGE column equilibrated with 50 mM Tris–HCl (pH 7.4) and 0.15 M NaCl. Alternatively, the low molecular weight (<3000, Amicon Ultracel3K) fraction of human serum (50 ml) was applied to the HiTrap-esRAGE column previously equilibrated with phosphate-buffered saline (PBS). After washing the bound proteins were eluted with 100 mM glycine-HCl buffer (pH 2.5) for HiTrap-anti-RAGE or 10 mM Tris–HCl (pH 7.4) and 2.0 M NaCl for HiTrap-esRAGE and the eluates were analysed by EIA or LC-MS/MS and Western blotting.
as §1
Supplementary Figure 1. […]

[6] = system: monkey brain capillary endothelial cells; test: In vitro blood-brain barrier (BBB) model (MBT-24H), transport between luminal and abluminal chambers, control or RAGE shRNA knockdown; details: 1.0 ng/ml in luminal chamber, 3 h, control vs RAGE knockdown, ELISA, n = 4
Procedure: EC, monkey brain capillary endothelial cells; Peri, rat brain pericytes; Astro, rat astrocytes. […] The endothelial cells used in the upper chamber in a were treated with RAGE shRNA (knockdown, KD) or control (C or CNT) vectors to assess the effects of RAGE knockdown. […] Values are mean ± SEM
For the in vitro BBB model (MBT-24H, PharmaCo-Cell Co., Nagasaki, Japan), rat brain pericytes (1.5 × 10^4 cells/cm^2) and rat astrocytes (1.5 × 10^4 cells/cm^2) were seeded on the bottom of the collagen-coated polyester membranes of Transwell inserts (Corning Life Sciences, MA, USA). After 16 h the cells firmly adherent, monkey brain vascular endothelial cells (1.5 × 10^5 cells/cm^2) were then seeded on the upper side of the inserts in 24-well culture plates. The in vitro BBB models were established within 4 days of seeding the cells according to the manufacturer’s instructions. Trans-endothelial electrical resistance (TEER), which primarily reflects the flux of sodium ions through the cell layers in the culture conditions, was measured with an epithelial-volt-ohm metre and an Endohm-6 chamber electrodes (World Precision Instruments, Sarasota, FL, USA). The TEERs of the coated, cell-free filters were subtracted from the measured TEER values of the models and shown as Ω cm^2. The apparent permeability constants (Papp) between luminal and abluminal chambers were calculated from the distribution ratios. Endothelial expression was silenced using RAGE shRNA and the pSilencer 3.0-H1 vector (Ambion, Austin, TX, USA)[41]. […]

[7] = target: oxytocin receptor (high affinity form) (UniProt P30559); details: cited from earlier work
Sequence of oxytocin receptor (high affinity form) (P30559 whole entry): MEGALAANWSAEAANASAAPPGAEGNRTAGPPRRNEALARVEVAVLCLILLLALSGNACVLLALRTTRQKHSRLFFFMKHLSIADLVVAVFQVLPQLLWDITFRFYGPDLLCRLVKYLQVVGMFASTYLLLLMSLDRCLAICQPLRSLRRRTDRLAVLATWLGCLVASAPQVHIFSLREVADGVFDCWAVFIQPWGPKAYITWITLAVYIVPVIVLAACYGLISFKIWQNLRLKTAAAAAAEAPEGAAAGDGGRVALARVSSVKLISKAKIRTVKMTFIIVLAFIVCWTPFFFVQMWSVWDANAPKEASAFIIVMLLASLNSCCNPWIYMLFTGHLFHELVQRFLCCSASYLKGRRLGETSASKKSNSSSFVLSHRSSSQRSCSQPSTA

[8] = target: oxytocin receptor (UniProt P30559); details: cited from earlier work
Sequence of oxytocin receptor (P30559 whole entry): as above

Sequence of oxytocin (P01178 whole entry, looked up): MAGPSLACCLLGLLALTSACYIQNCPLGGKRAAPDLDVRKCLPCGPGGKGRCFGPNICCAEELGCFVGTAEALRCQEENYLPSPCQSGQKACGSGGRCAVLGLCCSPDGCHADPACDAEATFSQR
Sequence of Oxytocin (synthetic) (P01178 whole entry, looked up): as above

O=C1OC2(c3ccc(O)cc3Oc3cc(O)ccc32)c2ccccc21 [fluorescein, sodium fluorescein]
CSF/blood fluorescent ([1]; Ager-/- BCCAO): 0.0316% and 0.02179% and 0.01832% and 0.02493%
CSF/blood fluorescent ([1]; Ager-/- Sham): 0.03456% and 0.01791% and 0.02565%
CSF/blood fluorescent ([1]; WT BCCAO): 0.02918% and 0.03954% and 0.02602%
CSF/blood fluorescent (relative fluorescence units, CSF value/serum value) ([1]; WT Sham, 200 μl of 6 mg/ml via retro-orbital venous sinus, 60 min): 0.03234% and 0.009373% and 0.03651% and 0.03497% and 0.03069% and 0.01619%

AGEs: glyceraldehyde-derived AGE-BSA, RAGE ligand
inhibition of oxytocin binding to soluble RAGE by RAGE ligand [2]: weakly or non-specifically inhibited

HMGB1: high-mobility group box 1, RAGE ligand (Sigma-Aldrich)
inhibition of oxytocin binding to soluble RAGE by RAGE ligand [2]: weakly or non-specifically inhibited

Oxytocin (synthetic) (from UniProt P01178 20-28) (peptide)
Kd [3]: 179 nM

S100B: RAGE ligand S100B (Sigma-Aldrich)
inhibition of oxytocin binding to soluble RAGE by RAGE ligand [2]: weakly or non-specifically inhibited

[^13C,^15N]oxytocin
[13C,15N]oxytocin in CSF of Ager-/- male mice [4]: undetectable

amyloid β 1-42
inhibition of oxytocin binding to soluble RAGE by RAGE ligand [2]: weakly or non-specifically inhibited

arginine-vasopressin
identification in material eluted from immobilised esRAGE (human serum) [5]: did not identify
transport by RAGE in the in vitro BBB assay system [6]: did not transport

oxytocin (from UniProt P01178)
Kd [7]: 1 nM
Kd [8]: 100 nM
